Measured values taken from patent US20070053902 (published 2007).
Like-named read-outs stand apart in the source and are kept apart here. Values belong to the binder of their own block, whether it stands above or below them.

How the values were obtained:
[1] = target: T1, human integrin alphavbeta3 (human, UniProt P06756); experiment: SPR
T1 chain 1: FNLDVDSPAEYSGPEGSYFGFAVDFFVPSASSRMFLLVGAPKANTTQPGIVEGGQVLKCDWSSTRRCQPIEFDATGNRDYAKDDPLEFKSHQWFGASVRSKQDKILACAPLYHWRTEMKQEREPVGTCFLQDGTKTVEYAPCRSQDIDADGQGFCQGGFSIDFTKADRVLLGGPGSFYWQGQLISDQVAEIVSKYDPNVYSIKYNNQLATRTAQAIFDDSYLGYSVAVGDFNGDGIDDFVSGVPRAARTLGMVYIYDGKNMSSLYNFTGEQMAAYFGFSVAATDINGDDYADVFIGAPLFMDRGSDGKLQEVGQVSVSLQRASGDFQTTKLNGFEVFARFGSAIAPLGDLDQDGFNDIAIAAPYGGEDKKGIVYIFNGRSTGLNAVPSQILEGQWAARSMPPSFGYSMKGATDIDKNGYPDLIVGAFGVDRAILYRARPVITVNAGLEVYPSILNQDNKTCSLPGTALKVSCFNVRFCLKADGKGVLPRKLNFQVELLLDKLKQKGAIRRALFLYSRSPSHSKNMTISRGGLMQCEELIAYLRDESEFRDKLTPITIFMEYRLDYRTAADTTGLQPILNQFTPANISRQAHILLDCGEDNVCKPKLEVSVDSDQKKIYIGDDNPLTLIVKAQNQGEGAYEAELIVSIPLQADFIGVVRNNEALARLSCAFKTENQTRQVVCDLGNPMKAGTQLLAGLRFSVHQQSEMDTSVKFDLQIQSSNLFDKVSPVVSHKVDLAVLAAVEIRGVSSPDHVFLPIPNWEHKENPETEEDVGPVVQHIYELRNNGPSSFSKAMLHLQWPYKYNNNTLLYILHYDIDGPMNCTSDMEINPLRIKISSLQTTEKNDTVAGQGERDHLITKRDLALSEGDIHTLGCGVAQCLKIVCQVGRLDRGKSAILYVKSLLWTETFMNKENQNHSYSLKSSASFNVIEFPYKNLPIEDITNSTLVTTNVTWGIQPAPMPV
T1 chain 2: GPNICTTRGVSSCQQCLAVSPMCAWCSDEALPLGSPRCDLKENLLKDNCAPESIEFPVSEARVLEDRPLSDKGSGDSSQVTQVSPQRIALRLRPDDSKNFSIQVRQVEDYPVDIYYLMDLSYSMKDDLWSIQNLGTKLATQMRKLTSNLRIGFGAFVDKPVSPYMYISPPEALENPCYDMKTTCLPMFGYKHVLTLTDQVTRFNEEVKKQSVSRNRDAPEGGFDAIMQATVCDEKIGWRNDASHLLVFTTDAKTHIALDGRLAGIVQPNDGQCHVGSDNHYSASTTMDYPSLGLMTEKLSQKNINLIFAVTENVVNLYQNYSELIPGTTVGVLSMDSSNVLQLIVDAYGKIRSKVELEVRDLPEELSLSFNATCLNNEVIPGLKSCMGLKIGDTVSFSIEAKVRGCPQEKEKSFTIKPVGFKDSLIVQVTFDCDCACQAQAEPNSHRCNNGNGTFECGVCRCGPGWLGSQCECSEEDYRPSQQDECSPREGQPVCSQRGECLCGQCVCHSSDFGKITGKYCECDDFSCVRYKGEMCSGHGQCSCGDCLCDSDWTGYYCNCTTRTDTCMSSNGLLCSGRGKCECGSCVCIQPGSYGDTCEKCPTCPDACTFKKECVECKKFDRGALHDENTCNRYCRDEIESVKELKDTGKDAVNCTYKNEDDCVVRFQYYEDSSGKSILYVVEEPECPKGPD

[2] = target: T1, human integrin alphavbeta3; experiment: SPR

Kd [1]: 1.3 nM
Kd [2]: 0.53 nM
B1: murine D12 (antibody, V domains shown)
VH: EIQLQQSGPEVVKPGASVKVSCKASGYAFTSYNMYWVKQSHGKSLEWIGYIDPYNGDTFYNQKFKGKATLTVDKSSSTAYMHLNSLTSEDSAVFYCARQNYGSFAYWGQGTLVTVSA
VL: DIVLTQSPATLSVTPGDSVSLSCRASQSISNHLHWYQQRSHESPRLLIKYASQSISGIPSRFRGSGSGTDFTLNINILETEDFGMYFCQQSNSWPFTFGSGTNLEIKR

Kd [1]: 1.1 nM
B2: HZD12-IgG4 (antibody, V domains shown)
VH: QVQLVQSGAEVKKPGASVKVSCKASGYAFTSYNMYWVRQAPGQGLEWIGYIDPYNGDTFYNQKFKGKATLTVDKSTSTAYMELSSLRSEDTAVYYCARQNYGSFAYWGQGTLVTVSS
VL: DIVLTQSPGTLSLSPGERATLSCRASQSISNHLHWYQQKPGQAPRLLIKYASQSISGIPSRFSGSGSGTDFTLTISRLEPEDFAVYYCQQSNSWPFTFGQGTKVEIK

Kd [1]: 1 nM
B3: HZD12-IgG1 (antibody, V domains shown)
VH: B2 VH
VL: B2 VL
